Experimental data taken from article PMC4694995.

Target: programmed cell death 1 (PD1), endogenous in mouse CD8+ T cells (mouse (endogenous in OT-1 and C57BL/6 CD8+ T cells)) (UniProt Q02242)
Test: co-IP; Lag3-/- or Pdcd1-/- mouse CD8+ T cells retrovirally transduced with LAG3 or PD1 constructs (pMIG-II), sorted, rested in IL2, restimulated with IE9mp1 for 5 min or treated with pervanadate for 5 min; antibody-conjugated Dynal beads; Western blot, densitometry normalised to input

programmed cell death 1 (PD1), endogenous in mouse CD8+ T cells (mouse (endogenous in OT-1 and C57BL/6 CD8+ T cells)), sequence (Q02242 25-288): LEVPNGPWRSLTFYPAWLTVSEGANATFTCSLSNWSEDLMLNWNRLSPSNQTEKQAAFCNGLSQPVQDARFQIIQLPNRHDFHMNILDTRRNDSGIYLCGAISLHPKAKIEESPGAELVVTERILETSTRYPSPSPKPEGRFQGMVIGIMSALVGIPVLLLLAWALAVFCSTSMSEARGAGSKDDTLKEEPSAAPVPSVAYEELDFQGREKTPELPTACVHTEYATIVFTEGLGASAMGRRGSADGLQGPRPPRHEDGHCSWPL
Src-homology-2 domain-containing phosphatase SHP1, endogenous in mouse CD8+ T cells, P29351 1-595 (enzyme; other documents disagree on this pair), sequence (P29351 whole entry): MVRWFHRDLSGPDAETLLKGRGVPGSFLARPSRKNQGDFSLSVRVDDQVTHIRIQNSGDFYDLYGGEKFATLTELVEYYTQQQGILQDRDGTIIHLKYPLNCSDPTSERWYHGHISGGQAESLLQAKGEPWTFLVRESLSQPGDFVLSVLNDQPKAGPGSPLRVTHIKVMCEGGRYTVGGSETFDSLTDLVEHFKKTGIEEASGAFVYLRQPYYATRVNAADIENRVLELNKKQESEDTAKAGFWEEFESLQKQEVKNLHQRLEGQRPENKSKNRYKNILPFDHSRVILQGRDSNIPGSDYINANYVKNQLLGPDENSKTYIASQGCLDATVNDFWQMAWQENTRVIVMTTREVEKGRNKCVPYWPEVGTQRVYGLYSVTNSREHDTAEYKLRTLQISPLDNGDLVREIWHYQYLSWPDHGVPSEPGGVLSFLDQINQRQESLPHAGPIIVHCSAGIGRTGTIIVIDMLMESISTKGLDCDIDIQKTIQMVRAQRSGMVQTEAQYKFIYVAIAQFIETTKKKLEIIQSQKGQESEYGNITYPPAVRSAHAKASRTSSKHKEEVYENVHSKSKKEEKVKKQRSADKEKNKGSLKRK

Row | Substance | amount pulled down by anti-PD1 antibody, against pLAG3 [% lower] | amount pulled down by anti-PD1 antibody in cells with pΔCY, against cells with pLAG3 [% less]
1 | LAG3 lacking the cytoplasmic domain, expressed from pMIG-LAG3ΔCY in Lag3-/- CD8+ T cells (domain or fragment) | 30 | –
2 | Src-homology-2 domain-containing phosphatase SHP1, endogenous in mouse CD8+ T cells, P29351 1-595 (enzyme; other documents disagree on this pair) | – | 20
